In article PMC4688034 (Cell Reports, 2015):

Assays:
γH2AX foci in HeLa cells = assay: γH2AX focus formation after irradiation; format: cell-based; details: 10 μM inhibitor, 1 hr prior to 3 Gy IR, fixed 30 min later
[1] = target: fluorescein-…pSQEY (γH2AX phosphopeptide) (human); assay: fluorescence polarisation
53BP1 BRCT2 domain = 53BP1 BRCT2 domain (UniProt Q12888); assay: fluorescence polarization titration; details: reference: pS139 peptide, untreated; sites S139

For `O=c1cc(-c2cccc3c2Sc2ccccc2S3)oc(N2CCOCC2)c1` [KU55933], the “γH2AX focus formation on irradiation” value (γH2AX foci in HeLa cells) was “substantially diminished”.
Work on “His6-SUMO-53BP1-BRCT2 (domain or fragment)” yielded a Kd [1] of 1.4 µM and a stoichiometry N (His6-SUMO-53BP1-BRCT2) of 2.
In the case of “H2AX (γH2AX when phosphorylated on Ser139) C-terminal 13 residues, 130-142 (from UniProt P16104) λ-phosphatase treated peptide”, the KD (53BP1 BRCT2 domain) is reported as “lost; reference 1.4 ± 0.15”.
